Source: publication PMC13287468, “Newton’s cradle-like allosteric mechanism explains regulatory RsmE RNA binding”

Experiments:
RsmE P64W [1] = target: T1, RsmE P64W (Pseudomonas protegens, UniProt P0DPC3, P64W); experiment: ITC; 50 mM potassium phosphate pH 7.2, 30 mM NaCl, 298 K; 10 uM monomer in the cell; conditions: tags: C-His6 (kept); chain copies: 2; hairpin; 1 RNA per protein dimer
T1 sequence: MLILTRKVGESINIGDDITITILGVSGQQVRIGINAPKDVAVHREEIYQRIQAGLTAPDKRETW

RsmE P64W [2] = target: T1, RsmE P64W; experiment: ITC; other site of the dimer holds one 4bpSL2 RNA; 50 mM potassium phosphate pH 7.2, 30 mM NaCl, 298 K; 10 uM monomer in the cell; conditions: tags: C-His6 (kept); chain copies: 2; hairpin; 2 copies of the RNA per protein dimer, value for the second
RsmE P64W [3] = target: T1, RsmE P64W; experiment: ITC; 50 mM potassium phosphate pH 7.2, 10 mM NaCl, 298 K; 10 uM monomer in the cell; conditions: tags: C-His6 (kept); chain copies: 2; hairpin; 1 RNA per protein dimer
RsmE P64W [4] = target: T1, RsmE P64W; experiment: ITC; 50 mM potassium phosphate pH 7.2, 100 mM NaCl, 298 K; 10 uM monomer in the cell; conditions: tags: C-His6 (kept); chain copies: 2; hairpin; 1 RNA per protein dimer
RsmE P64W [5] = target: T1, RsmE P64W; experiment: ITC; other site of the dimer holds one SL2 RNA; 50 mM potassium phosphate pH 7.2, 100 mM NaCl, 298 K; 10 uM monomer in the cell; conditions: tags: C-His6 (kept); chain copies: 2; hairpin; 2 copies of the RNA per protein dimer, value for the second
RsmE P64W [6] = target: T1, RsmE P64W; experiment: ITC; 50 mM potassium phosphate pH 7.2, 300 mM NaCl, 298 K; 10 uM monomer in the cell; conditions: tags: C-His6 (kept); chain copies: 2; hairpin; 1 RNA per protein dimer
RsmE P64W [7] = target: T1, RsmE P64W; experiment: ITC; other site of the dimer holds one SL2 RNA; 50 mM potassium phosphate pH 7.2, 30 mM NaCl, 298 K; 10 uM monomer in the cell; conditions: tags: C-His6 (kept), chain copies: 2
RsmE P64W [8] = target: T1, RsmE P64W; experiment: ITC; other site of the dimer holds one SL2 RNA; 50 mM potassium phosphate pH 7.2, 10 mM NaCl, 298 K; 10 uM monomer in the cell; conditions: tags: C-His6 (kept); chain copies: 2; hairpin; 2 copies of the RNA per protein dimer, value for the second
RsmE P64W [9] = target: T1, RsmE P64W; experiment: ITC; other site of the dimer holds one SL2 RNA; 50 mM potassium phosphate pH 7.2, 300 mM NaCl, 298 K; 10 uM monomer in the cell; conditions: tags: C-His6 (kept); chain copies: 2; hairpin; 2 copies of the RNA per protein dimer, value for the second
[10] = target: T2, RsmE dimer (P64W, C-terminal His6) (UniProt P0DPC3 1-64, P64W); experiment: NMR; 1:1 semi-holo complex; no minor conformations; 30 mM NaCl, 50 mM potassium phosphate pH 7.2; ITC at 298 K (NaCl varied in Supp. Fig. 8), RNA titrated into 10 uM RsmE monomer, sequential two-site model; NMR at 303/313 K with 3% D2O; conditions: protein: recombinant; tags: C-terminal 6xHis; chain copies: 2; hairpin, 4 bp stem
T2 sequence: T1 sequence

RsmE P64W [11] = target: T1, RsmE P64W; experiment: ITC; other site of the dimer holds one hcnA RNA; 50 mM potassium phosphate pH 7.2, 30 mM NaCl, 298 K; 10 uM monomer in the cell; conditions: tags: C-His6 (kept); chain copies: 2; hairpin; 2 copies of the RNA per protein dimer, value for the second
[12] = target: T2, RsmE dimer (P64W, C-terminal His6); experiment: ITC; apo RsmE dimer, first site; 30 mM NaCl, 50 mM potassium phosphate pH 7.2; ITC at 298 K (NaCl varied in Supp. Fig. 8), RNA titrated into 10 uM RsmE monomer, sequential two-site model; NMR at 303/313 K with 3% D2O; conditions: protein: recombinant; tags: C-terminal 6xHis; chain copies: 2; hairpin
[13] = target: T2, RsmE dimer (P64W, C-terminal His6); experiment: ITC; first site (Kd1); 30 mM NaCl; text: likely upper bound, true value may be <1 nM; 30 mM NaCl, 50 mM potassium phosphate pH 7.2; ITC at 298 K (NaCl varied in Supp. Fig. 8), RNA titrated into 10 uM RsmE monomer, sequential two-site model; NMR at 303/313 K with 3% D2O; conditions: protein: recombinant; tags: C-terminal 6xHis; chain copies: 2; hairpin, hexaloop

GGAUCAAGGACGAUCC (ssRNA, T7 transcript (5' triphosphate expected)) [4bpSL2]
Kd (RsmE P64W [1]): 21.6 ± 2.56 nM | Kd (RsmE P64W [2]): 97.2 ± 3.58 nM

GGGCCAUCAAGGACGAUGGUCC (ssRNA, T7 transcript (5' triphosphate expected)) [SL2]
Kd (RsmE P64W [1]): < 1.45 nM | Kd (RsmE P64W [3]): < 0.943 nM | Kd (RsmE P64W [4]): 5.71 ± 1.35 nM | Kd (RsmE P64W [5]): 64.2 ± 3.23 nM | Kd (RsmE P64W [6]): 15.4 ± 1.51 nM | Kd (RsmE P64W [7]; hairpin, 2 copies of the RNA per protein dimer, value for the second): 31.1 ± 2.78 nM | Kd (RsmE P64W [8]): 22.3 ± 2.06 nM | Kd (RsmE P64W [9]): 118 ± 4.14 nM

GGAUCAAGGACGAUCC (structured_RNA) [4bpSL2 RNA]
binding result [10]: binds

GGGCUUCACGGAUGAAGCCC (ssRNA, T7 transcript (5' triphosphate expected))
Kd (RsmE P64W [1]): 8.67 ± 2.02 nM | Kd (RsmE P64W [11]): 218 ± 12.8 nM

B1: hcnA SD (ssRNA)
RNA 1: GGGCUUCACGGAUGAAGCCC
RNA 2: GGGCCAUCAAGGACGAUGGUCC
modifications: T7 transcript (5' triphosphate expected)
Kd (RsmE P64W [7]; two separate hairpins, one per site): 297 ± 11.4 nM

GGGCUUCACGGAUGAAGCCC (structured_RNA) [hcnA SD RNA]
Kd [12]: ~10 nM

GGGCCAUCAAGGACGAUGGUCC (structured_RNA) [SL2 RNA (RsmZ)]
Kd [13]: 1.4 nM
